± gives the uncertainty stated by the source.
Experiment: self-splicing fitness, log relative to wild type (ln ratio); higher = more splicing; Tetrahymena group I intron in knt gene, E. coli kanamycin selection, DiMSum; sequences stand for … in CUCUCU…GGAGGGAAAAGUUAUCAGGCAUGCACCUGGUAGCUAGUCUUUAAACCAAUAGAUUGCAUCGGUUUAAAAGGCAAGACCGUCAAAUUGCGGGAAAGGGGUCAACAGCCGUUCAGUACCAAGUCUCAGGGGAAACUUUGAGAUGGCCUUGCAAAGGGUAUGGUAAUAAGCUGACGGACAUGGUCCUAACCACGCAGCCAAGUCCUAAGUCAACAGAUCUUCUGUUGAUAUGGAUGCAGUUCACAGACUAAAUGUCGGUCGGGGAAGAUGUAUUCUUCUCAUAAGAUAUAGUCGGACCUCUCCUUAAUGGGAGCUAGCGGAUGAAGUGAUGCAACACUGGAGCCGCUGGGAACUAAUUUGUAUGCGAAAGUAUAUUGAUUAGUUUUGGAGUACUCGUGGUCG
Procedure, shortened: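 Colonies from six replicate transformations of E. coli BL21(DE3) were pooled and amplicon-sequenced on an Illumina HiSeq 2500. The library placed an intron with all eight P1ex-region nucleotides randomised inside the knt kanamycin-resistance gene on pET-22b(+), and cells grew overnight at 37°C or 30°C on LB agar with or without 25 μg/mL kanamycin (plus 100 μg/mL carbenicillin, 50 μM IPTG, 0.2% rhamnose). Fitness is the DiMSum error-weighted combination of wild-type-normalised replicate fold changes, kanamycin versus none.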

| Sequence | self-splicing fitness (ln) (30 °C) | self-splicing fitness (ln) (37 °C) |
| --- | --- | --- |
| GUCUAGCAAUAUUACGUAUA | -1.41 ± 0.13 | -0.887 ± 0.12 |
| GUCUAGCAAUAUUACGUCAC | -2.9 ± 0.24 | -3.04 ± 0.43 |
| GUCUAGCAAUAUUACGUCUC | 0.162 ± 0.096 | -0.048 ± 0.096 |
| GUCUAGCAAUAUUACGUGCA | -1.38 ± 0.096 | -0.535 ± 0.1 |
| GUCUAGCAAUAUUACGUGUG | -0.5 ± 0.063 | -0.649 ± 0.079 |
| GUCUAGCAAUAUUACGUUGA | -1.64 ± 0.2 | -1.12 ± 0.23 |
| GUCUAGCAAUAUUACGUUGU | -0.779 ± 0.055 | -0.582 ± 0.065 |
| GUGAAGCAAUAUUACGAAAU | -0.716 ± 0.11 | -0.0167 ± 0.12 |
| GUGAAGCAAUAUUACGAAUA | -1.91 ± 0.1 | -0.485 ± 0.23 |
| GUGAAGCAAUAUUACGAAUU | -0.957 ± 0.18 | -0.439 ± 0.21 |
| GUGAAGCAAUAUUACGAGGA | – | -0.805 ± 0.32 |
| GUGAAGCAAUAUUACGAUGG | -2.31 ± 0.11 | 0.388 ± 0.13 |
| GUGAAGCAAUAUUACGCCAU | -2.07 ± 0.13 | -1.14 ± 0.15 |
| GUGAAGCAAUAUUACGCGGA | -1.24 ± 0.09 | -1.13 ± 0.14 |
| GUGAAGCAAUAUUACGCGGU | -3.01 ± 0.28 | -0.0814 ± 0.17 |
| GUGAAGCAAUAUUACGGAAC | 0.76 ± 0.34 | – |
| GUGAAGCAAUAUUACGGCCU | 0.395 ± 0.068 | 0.277 ± 0.085 |
| GUGAAGCAAUAUUACGGGAG | -2.09 ± 0.1 | -0.567 ± 0.094 |
| GUGAAGCAAUAUUACGGGGC | -2.91 ± 0.23 | -3.35 ± 0.35 |
| GUGAAGCAAUAUUACGGGUA | -0.994 ± 0.068 | -1.23 ± 0.1 |
| GUGAAGCAAUAUUACGGGUG | -1.39 ± 0.075 | -0.589 ± 0.11 |
| GUGAAGCAAUAUUACGGUCC | -0.351 ± 0.15 | -0.0265 ± 0.18 |
| GUGAAGCAAUAUUACGUCCC | -1.28 ± 0.35 | -0.367 ± 0.2 |
| GUGAAGCAAUAUUACGUUAA | -2.09 ± 0.12 | -1.74 ± 0.14 |
| GUGCAGCAAUAUUACGAACC | -1.94 ± 0.3 | 0.395 ± 0.48 |
| GUGCAGCAAUAUUACGAGAA | – | -2.25 ± 0.3 |
| GUGCAGCAAUAUUACGAGGG | -2.79 ± 0.21 | -1.87 ± 0.27 |

| Sequence | self-splicing fitness (ln) (30 °C) | self-splicing fitness (ln) (37 °C) |
| --- | --- | --- |
| GUGCAGCAAUAUUACGAUGU | -0.56 ± 0.067 | -0.37 ± 0.073 |
| GUGCAGCAAUAUUACGAUUC | 0.476 ± 0.074 | -0.403 ± 0.073 |
| GUGCAGCAAUAUUACGCACA | -3.26 ± 0.18 | -1.67 ± 0.12 |
| GUGCAGCAAUAUUACGCAUU | – | -2.38 ± 0.2 |
| GUGCAGCAAUAUUACGCCUA | -1.29 ± 0.24 | 0.608 ± 0.25 |
| GUGCAGCAAUAUUACGGAUG | -2.72 ± 0.29 | -1.74 ± 0.25 |
| GUGCAGCAAUAUUACGGAUU | -1.66 ± 0.12 | -0.37 ± 0.11 |
| GUGCAGCAAUAUUACGGCAC | -0.83 ± 0.2 | -1.46 ± 0.24 |
| GUGCAGCAAUAUUACGGCAU | -2.93 ± 0.2 | -1.64 ± 0.18 |
| GUGCAGCAAUAUUACGGCCA | -0.211 ± 0.11 | -0.818 ± 0.14 |
| GUGCAGCAAUAUUACGGCGC | -2.72 ± 0.17 | -2.41 ± 0.32 |
| GUGCAGCAAUAUUACGGCUG | -4.5 ± 0.34 | -2.36 ± 0.28 |
| GUGCAGCAAUAUUACGGGAG | -2.01 ± 0.12 | -1.44 ± 0.13 |
| GUGCAGCAAUAUUACGGGGC | -1.75 ± 0.15 | -2.63 ± 0.27 |
| GUGCAGCAAUAUUACGGGUU | -3.37 ± 0.13 | -0.752 ± 0.095 |
| GUGCAGCAAUAUUACGGUCG | -1.29 ± 0.053 | -0.792 ± 0.075 |
| GUGCAGCAAUAUUACGUAUG | -1.86 ± 0.13 | -1.1 ± 0.13 |
| GUGCAGCAAUAUUACGUCAG | -3.02 ± 0.13 | -1.83 ± 0.11 |
| GUGCAGCAAUAUUACGUCCC | -0.912 ± 0.35 | -0.124 ± 0.26 |
| GUGCAGCAAUAUUACGUCGC | -1.5 ± 0.28 | -0.148 ± 0.22 |
| GUGCAGCAAUAUUACGUGAU | -1.98 ± 0.078 | -0.862 ± 0.086 |
| GUGCAGCAAUAUUACGUUUG | -1.76 ± 0.17 | -2.63 ± 0.27 |
| GUGGAGCAAUAUUACGAAAA | -2.27 ± 0.43 | – |
| GUGGAGCAAUAUUACGAUGA | -1.37 ± 0.19 | -1.39 ± 0.37 |
| GUGGAGCAAUAUUACGCCGG | -2.57 ± 0.46 | – |
| GUGGAGCAAUAUUACGCGAC | -2.22 ± 0.48 | – |
| GUGGAGCAAUAUUACGCGUG | -2.88 ± 0.37 | -1.77 ± 0.3 |

| Sequence | self-splicing fitness (ln) (30 °C) | self-splicing fitness (ln) (37 °C) |
| --- | --- | --- |
| GUGGAGCAAUAUUACGCUUA | -1.86 ± 0.14 | -1.04 ± 0.22 |
| GUGGAGCAAUAUUACGCUUC | -3.26 ± 0.2 | -3.69 ± 0.42 |
| GUGGAGCAAUAUUACGGGGG | -3.36 ± 0.44 | – |
| GUGGAGCAAUAUUACGGUAA | -2.05 ± 0.11 | -2.95 ± 0.19 |
| GUGGAGCAAUAUUACGGUAG | -1.7 ± 0.16 | -1.41 ± 0.31 |
| GUGGAGCAAUAUUACGUAUA | -2.7 ± 0.2 | – |
| GUGGAGCAAUAUUACGUCUA | -3.74 ± 0.47 | – |
| GUGGAGCAAUAUUACGUGCA | -2.14 ± 0.17 | -1.17 ± 0.16 |
| GUGGAGCAAUAUUACGUUAU | -3.23 ± 0.26 | -0.612 ± 0.14 |
| GUGGAGCAAUAUUACGUUGU | -2.93 ± 0.12 | -2.53 ± 0.21 |
| GUGUAGCAAUAUUACGAAAU | -1.47 ± 0.1 | -1.1 ± 0.14 |
| GUGUAGCAAUAUUACGACCA | -1.47 ± 0.28 | -0.121 ± 0.43 |
| GUGUAGCAAUAUUACGACGU | 0.117 ± 0.095 | 0.9 ± 0.12 |
| GUGUAGCAAUAUUACGAGAG | – | -1.52 ± 0.47 |
| GUGUAGCAAUAUUACGCACG | -3.57 ± 0.27 | -2.25 ± 0.22 |
| GUGUAGCAAUAUUACGCAUC | – | -0.977 ± 0.26 |
| GUGUAGCAAUAUUACGCGAG | -3.67 ± 0.32 | -0.997 ± 0.17 |
| GUGUAGCAAUAUUACGCGGG | -3.73 ± 0.2 | -2.75 ± 0.2 |
| GUGUAGCAAUAUUACGGAAG | -1.96 ± 0.19 | -0.206 ± 0.19 |
| GUGUAGCAAUAUUACGGCCA | 0.628 ± 0.35 | -0.349 ± 0.44 |
| GUGUAGCAAUAUUACGGCGG | -2.81 ± 0.23 | -1.6 ± 0.19 |
| GUGUAGCAAUAUUACGGGUC | -2.47 ± 0.2 | -2.49 ± 0.28 |
| GUGUAGCAAUAUUACGGGUU | -2.77 ± 0.21 | -1.22 ± 0.17 |
| GUGUAGCAAUAUUACGGUAG | – | -1.58 ± 0.23 |
| GUGUAGCAAUAUUACGGUUA | -0.588 ± 0.14 | -0.936 ± 0.17 |
| GUGUAGCAAUAUUACGGUUG | -2.88 ± 0.14 | -2.61 ± 0.16 |

Source: the supplement of paper PMC7877785
